In the nanobody polyreactivity screen of Harvey et al. (2022):

Assay: yeast display, Sf9 membrane polyspecificity reagent, FACS + sequencing; frameworks hold sequencing errors
How it was run: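 Nanobodies from a synthetic yeast display library (Saccharomyces cerevisiae BJ5465), induced 36–48 hours with galactose, were stained 1 hour at 4 °C with 10% biotinylated, detergent-solubilized Sf9 membrane reagent, enriched on streptavidin microbeads, then FACS-sorted. Anti-HA (expression) and streptavidin (reagent binding) fluorescence set low and high (top ~1%) gates. Polyreactivity labels come from the gate of origin. Genes were colony-PCR amplified, MiSeq 2 × 250 sequenced and filtered by CDR length.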

Sequence | polyreactivity (PSR sort gate)
QVQLVESGGGLVQAGGSLRLSCAASGRTFGVYMGWYRQAPGKERELVAVISSGDSTNYADSVKGRFTISRDNAKNTVYLLMNSLKPEDTAVYYCNAYGSDRLTLDDYWGQGTQVSVSS | low polyreactivity
QVQLVESGGGLVQAGGSLRLSCDSSGSIFYYYAMGWYRQAPGKERELVAAISRRGGSTYYADSVKVRFTISRDNAKNTVYLQMNSLKPVDTAVYYCAADSPRGYDYWGQCTQVTVSS | high polyreactivity
QVQLVESGGGLVQAGGSLRLSCAASGSIFSYYVMGWYRQAPGKERELVAAITSSGGSTYYADSVKGRFTISRDNAKNTVYLQMNSLKTEDTAVYYCAAYQRSQDRSYPGYEYWGQGTQVTVSS | high polyreactivity
QVQLVESGGGLVQAGGSLRLSCAASGRILARYAMGWYRQAPGKERELVASISRRGGSTYYADSVKGRFTISRDNAKNTVYLQMNSLKPEDTAVYYCNARGPVSSGYDYWGQGTQVTVSS | high polyreactivity
QVQLVESGGGLVQAGGSLRLSSAASGRIFTYYAMGWYRQAPGKVREVVAAISFRGASTYYADSVKGRVTISRDYAQNTVYLQMHSLKPEDTAVYYGAAERIARPTIDYWGQGTQVTVSS | low polyreactivity
QVQLVESGGGLVQAGGSLRLSCAASGRIFRYNAMGWYRQAPGKERELVAAITSGTGTNYADSVKGRFTISRDNAKNTVYLQMNSLKPEDTAVYYCNKDRKSYRYDYWGQGTQVTVSS | low polyreactivity
QVQLVESGGGLVQAGGSLRLSCAASGIIFSYYAMGWYRQAPGKERELVAAITSGGGSTYYADSVKGRFTISRDNAKNTVYLQMNSLKPEDTAVYYCAADYNRELGRKFEYWGQGSQVTVSS | high polyreactivity
QVQLVESGGGLVQAGGSLRLSCAASGRTFGANAMGWYRQAPGKERELVATIRRGGSTYYADSVKGRFTISRDNAKNTVYLLMNSLKPEDTAVYYCATQYHSYAKEYDYWGQGTQVTVSS | low polyreactivity
QVQLVESGGGIVQAGGSHRLSCAASGSIFVSNAMGWYRQAPGKERELVAAISQSGGSTYYADSVKGRFTISRDTAKNTVYLQMNSLNPEDTAVYYCATPIRSGFRIYDYWGQGTQVTVSS | low polyreactivity
QVQLVESGGGLVQAGGSLRLICAASGRIFYHNAMGWYRQAPGKERELDAAITWSGGSTYYADSVKGRFTISRDNAKNTVYLQMNSLKPEDTAVYYCAALWLVNHYYPSQDYDYWGQGSQVTVSS | high polyreactivity
QDQLVESGGGLVQEGGSLRLSCAAYGSIYRYAMGWNRPAPGKERELVAAINFNGGRTYYADSVNGRFTISRDNAKNTVYLQMTSLKPEDTAVYYCAARISVYSTLPNDFDYWGQGTQVTVSS | high polyreactivity
QVQLVESGGGLVQAGGSLRLSCAASGRTFRDYVMGWYRPAPGKERELVAAISTRGASTYYADSVKGRFTISRDNAKNTVYLQMNSLKPEDTAVYYCAARSTRRGNEYDYWGQGTQVTVSS | high polyreactivity
QVQLVESGGGLVQAGGSLRLSCAASGIIFNYNAMGWYRQAPGKERELVASISSSGGNTYYADSVKGRFTISRDNAKNTVYLQMNSLKPEDTAVYYCAARYVGWRLKRWYEYWGQGTQVTVSS | high polyreactivity
QVQLVESGGGLVQAGGSLRLSCAASGYIFSGYAMGWYRQAPGKERELVAAISSNGGSTYYADSVKGRFTISRDNAKNTVYLQMISLKPEDTAVYYCNRGLAARVGRGDYWGQGTQVTVSS | low polyreactivity
QFQLVDSGGGLVQAGGSLRLSCAASGRNYRLYAMGWSRQAPRKERELVAAITRGGRTNYAYSVKGRFTISRDNAMNTVYLQMNSLKPEDTAVYYCAARFVERDTDYYYWGQGTQVTVSS | low polyreactivity
QVQLVESGGRLVQAGGSLRLLCAASGSTFRYYAMGWYRPAPGKERELLAAISRSGGRTYYADSVKGRFTMSRDNAKTTVYLQMKSLKPEDTAVYDCATRGDGSSWGDYDYWGQGTQVTVSS | high polyreactivity
QLQLVESGGGLVQAGGSLRLSCAASGRIFVKYAMGWYRQAPGKERELVAAISNGASTNYADSVKGRFTISRDNAKNTVYLQMNSLKPEDTAVYYCAASFSRYYRKRYDYWGQGTQVTVSS | high polyreactivity
QVQLVDTGGGLVQAGGSLRLICAASGSIFKIYAMGWYRQAPGKERELVAAISSSGGSTYYADSVKGRFTISRDNAKNTVYLQMNCLKPEDTAVYYCAAGQSWRKNAYRYDYWGQGTQVTVSS | high polyreactivity
QVQLVESGGGLVQAGGSLRLSCAASRITFRFYAMGWSRQAPGKERELVAVISRGGGTTYYADSVKGRFTISRDNAKNTVYLQMNSLKPEDTAVYYCNAVIAWYRSDEYDYWGQGTQVTVSS | high polyreactivity
QVQLVESGGRLVEAGGSLRISWAASGLIFGYNAMGWYRQAPGKERELVAAISGSGGRTYYADSVKGRFTISRDNAKNTVYLQMNSLKPEDTAVFYCAVADRRGLGYWGQGTQVTVSS | high polyreactivity
QVQLVESGGGIVQAGGSLRLICAASVITLVLYAMVWYRQAPGKERELLAAISSSGGSTYYADSVKGRFTISRDNAKNTVYLQMTSLKPEDTAVYYCNVTPDWNARRPFDYWGQGTQVTVSS | high polyreactivity
QVQLVESGGGLVQAGGSLRLSCAASGSTFASHVMGWYRQAPGKERELVAAITRGDRTHYADSVKGRFTISRDNAKNTVYLQMNSLKPEDTAVYYCAKVTTLGRSRDYWGQGTQVTVSS | low polyreactivity
